Legend:
huFolR1-Fc = test: Epitope binning (SPR); type: binding, human; conditions: 500 nM huFolR1-Fc, 500 nM binder
Procedure: 500 nM huFolR1-Fc was then captured for 60 s, followed by 500 nM of the different binders for 30 s. The surface was regenerated with two injections of 10 mM glycine pH 2 for 30 s each.

human FolR1 = target: T1, human FolR1 (Homo sapiens, UniProt P15328); test: SPR single injections of anti-FolR1 IgGs (Biacore T200); type: binding
T1 construct: the extracellular domain of the antigen linked to the hinge region of Fc-knob which is co-expressed with an Fc-hole molecule; made in house; host or cells: HEK293 EBNA
Description: The immobilization level was about 300-400 RU.

[1] = system: HEK cells transiently transfected with cyno FolR1; test: Cross-reactivity to cyno FolR1 on transfected HEK cells (flow cytometry); type: binding, cynomolgus; conditions: IgG
Description: FIGS. 4A-B depict graphs summarizing cross-reactivity of FolR1 binders to cyFoLR1. Cross-reactivity of the FolR1 antibodies to cyno FolR1 was addressed on HEK cells transiently transfected with cyFolR1 by flow cytometry.
New FolR1 binders were generated via Phage Display using either a Fab library or a common light chain library using the CD3 light chain. The identified binders were converted into a human IgG1 format and binding to FolR1 high expressing HeLa cells was addressed. As reference molecule the human FolR1 binder Mov19 was included. […] In a next step the selected clones were tested for specificity to human FolR1 by excluding binding to the closely related human FolR2. HEK cells were transiently transfected with either human FolR1 or human FolR2 to address specificity. […] Therefore these clones were excluded from further characterization. In parallel cross-reactivity of the FolR1 clones to cyno FolR1 was addressed by performing binding studies to HEK cells transiently transfected with cyno FolR1. […] Subsequently three human FolR1 specific cyno cross-reactive binders were converted into TCB format and tested for induction of T cell killing and T cell activation. […] As reference molecule Mov19 FolR1 TCB was included in all studies. These FolR1 TCBs were then used to compare induction of internalization after binding to FolR1 on HeLa cells.

[2] = system: erythrocytes (CD235a positive); test: Binding to erythrocytes (flow cytometry); parameters: species or system human

Molecule	binding of analyte in solution to huFolR1 captured on immobilized 16D5 TCB (huFolR1-Fc)	binding of analyte in solution to huFolR1 captured on immobilized 21A5 TCB (huFolR1-Fc)	binding of analyte in solution to huFolR1 captured on immobilized Mov19 IgG (huFolR1-Fc)	dissociation from huFolR1 (human FolR1)	binding to cyno FolR1 [1]	binding to erythrocytes [2]
36F2: anti-FolR1 clone from generic multi-framework Fab library (Vk_3_20/VH_1_46) (antibody, V domains shown) VH: QVQLVQSGAEVKKPGASVKVSCKASGYTFTSYYMHWVRQAPGQGLEWMGIINPSGGSTSYAQKFQGRVTMTHDTSTSTVYMELSSLRSEDTAVYYCARSFFTGFHLDYWGQGTLVTVSS VL: EIVLTQSPGTLSLSPGERATLSCRASQSVSSSYLAWYQQKPGQAPRLLIYGASSRATGIPDRFSGSGSGTDFTLTISRLEPEDFAVYYCQQYTNEHYYTFGQGTKVEIK	+ (+means binding)	+ (+means binding)	−	dissociated rapidly from huFolR1	bind comparably well human and cyno FoLR1	
Mov19: reference human FolR1 binder, control IgG (antibody, V domains shown) VH: QVQLQQSGAELVKPGASVKISCKASGYSFTGYFMNWVKQSHGKSLEWIGRIHPYDGDTFYNQNFKDKATLTVDKSSNTAHMELLSLTSEDFAVYYCTRYDGSRAMDYWGQGTTVTVSS VL: DIELTQSPASLAVSLGQRAIISCKASQSVSFAGTSLMHWYHQKPGQQPKLLIYRASNLEAGVPTRFSGSGSKTDFTLNIHPVEEEDAATYYCQQSREYPYTFGGGTKLEIK	+ (+means binding)	+ (+means binding)	−			could not observe any specific binding

Source: patent US11613587B2, “Combination therapy of T cell activating bispecific antigen binding molecules and PD-1 axis binding antagonists” (Hoffmann-La Roche Inc., priority 2014, dated 2023)
